This note sets out measurements from patent publication US9439886B2, “Methods for producing crosslinked flavonoid hydrogels” (Agency for Science, Technology and Research, priority 2009, dated 2016).

Data set [1] is described as follows: Gelation time of HA-EGCG hydrogels (vial tilting). In kind it is physicochemical. The conditions noted are these: pH 7.4, no exogenous H2O2, HA-EGCG 17.5 mg/ml. As to the method:
Preparation of HA-EGCG solution: For all experiments described below, HA-EGCG stock solution was prepared by dissolving the conjugates in distilled water at 25 mg/ml at room temperature using a magnetic stirrer. Dissolution took about 25 min and the pH of the solution was 2.5. Then the pH was brought to 6 using 2 M NaOH before diluting with sodium phosphate buffer (final ionic strength: 0.15 M) to the desired concentration and pH, depending on the gelation condition.
Formation of HA-EGCG hydrogels through air autoxidation: To form HA-EGCG hydrogel by air autoxidation, HA-EGCG solution was diluted to 17.5 mg/ml by adding sodium phosphate buffer with pH between 6.0 to 8. To determine the gelation time, glass vials containing 0.25 ml of HA-EGCG were tilted frequently at 90 degrees for 5 sec, the time at which no obvious flowing motion could be observed was recorded as the gelation time.
Acceleration of HA-EGCG hydrogel formation through air autoxidation by adding catalase: Stock solution of catalase was prepared by dissolving the enzyme in distilled water at 22.5 kU/ml. […] The gelation time was determined as described above.
Formation of HA-EGCG hydrogel by HRP-mediated crosslinking reaction: HRP stock solution was prepared in water at 6.25 U/ml. […] The gelation time was determined as described above.

Data set [2] can be described thus: H2O2 production by HA-EGCG (PeroXOquant peroxide assay). In kind it is physicochemical. The conditions noted are these: HA-EGCG 10 mg/ml; pH 7.4; over 35 min; increased with time. As to the method: Measurement of H2O2 Production by HA-EGCG: The amount of H2O2 produced by HA-EGCG was determined using the PeroXOquant Quantitative Peroxide Assay Kits from Pierce. In order to determine the amount of H2O2 produced during the dissolution process, a sample of the dissolved conjugates was diluted 20-fold with distilled water, 20 μl of which was added to the well of a 96-wellplate follow by the addition of 200 μl working reagent prepared according to manufacturer's protocol. The HA-EGCG solution was then diluted to 10 mg/ml with phosphate buffer. The final ionic strength of the mixture was 0.15 M and pH was 7.4. For the next 35 min, 20 μl of the HA-EGCG solution was drawn out every 5 min and diluted 10-fold with distilled water. 20 μl of the diluted sample was then added to a well of a 96-wellplate followed by 200 μl of working reagents. After the last sample was collected and the working reagent added, the plate was incubated for another 1 h before reading the absorbance at 595 nm. The amount of H2O2 produced by HA-EGCG was determined by comparing to a set of H2O2 standards.

Take “hyaluronic acid-epigallocatechin gallate [HA-EGCG]”: the gelation time amounted to 50 min in data set [1] (HRP 0 unit/ml) and 9 min in data set [1] (HRP 0.125 unit/ml). The “amount of H2O2 generated during air-autoxidation” value in data set [2] is given as “micromolar range”.
